Substitutions are numbered along the chain they refer to. Numbers in names are those of the source.
T1: human PVRIG protein on the cell membrane surface (human, UniProt Q6DKI7 41-326)
T1 construct: Also used here for the natural PVRIG on NKG cells and human lymphocytes; also called 293T-human PVRIG cell line; PVRIG on NKG cell line
T1 sequence: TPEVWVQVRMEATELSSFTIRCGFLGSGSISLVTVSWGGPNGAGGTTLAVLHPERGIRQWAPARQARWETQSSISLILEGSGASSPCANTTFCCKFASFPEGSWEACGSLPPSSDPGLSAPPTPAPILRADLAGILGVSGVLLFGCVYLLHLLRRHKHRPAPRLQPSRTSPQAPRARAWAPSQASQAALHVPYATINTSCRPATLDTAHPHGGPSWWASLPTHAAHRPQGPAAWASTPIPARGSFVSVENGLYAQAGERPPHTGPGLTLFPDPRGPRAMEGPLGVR

B1: Antibody 4-hu4 (antibody, human IgG4 S228P, kappa, V domains shown)
VH: EVQLVQSGAEVKKPGSSVKVSCKASGGTFSSFSIEWVRQAPGQGLEWIGEILPGSNSTNYNEKFKGRVTFTADESTSTAYMELSSLRSEDTAVYYCSSYWFAYWGQGTLVTVSS
VL: DIVMTQSPDSLAVSLGERATINCKSSQSLLNSGNQKNYLAWYQQKPGQPPKLLIYGASTRESGVPDRFSGSGSGTDFTLTISSLQAEDVAVYYCQNAHSYPPTFGQGTKLEIKR
notes: Humanized Antibody 4; heavy chain IgG4 with S228P already in the entry
B2: Antibody 4-hu11 (antibody, human IgG4 S228P, kappa, V domains shown)
VH: B1 VH with G27Y, R67K, V68A, E74T, S77N
VL: B1 VL
notes: as for B1
B3: Antibody 4-hu3 (antibody, human IgG4 S228P, kappa, V domains shown)
VH: B1 VH with I48M
VL: B1 VL
notes: as for B1
B4: Antibody 4-hu1 (antibody, human IgG4 S228P, kappa, V domains shown)
VH: B1 VH with I48M, F70I, S97A, S98R
VL: B1 VL
notes: as for B1
B5: Antibody 4-hu6 (antibody, human IgG4 S228P, kappa, V domains shown)
VH: B1 VH with R67K, V68A, E74T, S77N
VL: B1 VL
notes: Humanized Antibody 4; heavy chain IgG4 with S228P already in the entry; also called Antibody 4-hub [sic]
B6: Antibody 4-hu2 (antibody, human IgG4 S228P, kappa, V domains shown)
VH: B1 VH with I48M, F70I
VL: B1 VL
notes: as for B1
B7: Antibody 4-hu7 (antibody, human IgG4 S228P, kappa, V domains shown)
VH: B1 VH with G27Y, I48M, F70I
VL: B1 VL
notes: as for B1
B8: Antibody 4-hu5 (antibody, human IgG4 S228P, kappa, V domains shown)
VH: B1 VH with E74T, S77N
VL: B1 VL
notes: as for B1
B9: Antibody 4-hu10 (antibody, human IgG4 S228P, kappa, V domains shown)
VH: B1 VH with G27Y, E74T, S77N
VL: B1 VL
notes: as for B1
B10: Antibody 4-hu8 (antibody, human IgG4 S228P, kappa, V domains shown)
VH: B1 VH with G27Y, I48M
VL: B1 VL
notes: as for B5
B11: Antibody 3 (antibody, V domains shown)
VH: EVQLQQSGPELVKPGASMKISCKASGYSFTAYTMNWVKQSHGKNLEWIGLINPYNGGTSYNQKFKGKATLTGDKSSSTAYMELLSVTSEDSAVYFCAREGNYYGSRGDFDYWGQGTTLTVSS
VL: DILLTQSPAILSVSPGERVSFSCRASQTIVTNILWYQQRTNGSPRLLIRYASESISGIPSRFSGSGSGTDFTLSINSVESEDIAHYYCQQSHSWPFTFGSGTKLEIK
notes: Murine monoclonal antibody from hybridoma ascites; also called murine antibody Antibody 3
B12: Antibody 2 (antibody, V domains shown)
VH: QVQLQQSGAELTKPGASVKISCKATGYTFSTFAIDWIKQRPGHGLAWIGEILPGGNNTNYNEKFKGKATFTADTSSNTAYMHLSSLTSEDSAVYYCSTYWFAYWGQGTLVTVSA
VL: DIVMTQSPSSLSVSAGEKVTMSCKSSQSLLNSGNQKNYLAWYQQKPGQPPKLLMYGASTRESGVPDRFTGSGSGTDFTLTISSVQAEDLAVYYCQNAHSYPPAFGAGTKLELK
notes: Murine monoclonal antibody from hybridoma ascites; also called murine antibody Antibody 2
B13: Antibody 1 (antibody, V domains shown)
VH: B12 VH with T12M, H43P, G55I
VL: B12 VL with S22T, A103T
notes: Murine monoclonal antibody from hybridoma ascites, purified on Protein G; also called murine antibody Antibody 1

Target: T2, recombinant human PVRIG-human IgG1 Fc fusion protein (human)
T2 construct: no linker is told; also called human PVRIG-Fc fusion protein
Assay: SPR (Biacore), human PVRIG-human IgG1 Fc on chip, antibody in flow, 1:1 model
Method: The binding kinetics and dissociation equilibrium constant (KD) of the antibodies of the present disclosure to human PVRIG were determined using the surface plasmon resonance (Biacore) assay. Briefly, a CMS chip was coated with human PVRIG-human IgG1 Fc fusion protein, and after being blocked, antibody solutions of different concentrations passed through the CMS chip at a fixed flow rate and bound to antigen for 2 min, followed by transfer to dissociation buffer for 6 min for determination of the dissociation rate. The kinetics were analyzed using a 1:1 binding model.

Kd	koff	kon	Binder
236 pM	4.44e-05 s⁻¹	188000 M⁻¹ s⁻¹	B1
≤ 4.22 pM	≤ 1e-06 s⁻¹	237000 M⁻¹ s⁻¹	B2
91.6 pM	1.95e-05 s⁻¹	212000 M⁻¹ s⁻¹	B3
118 pM	2.32e-05 s⁻¹	197000 M⁻¹ s⁻¹	B4
≤ 3.56 pM	≤ 1e-06 s⁻¹	281000 M⁻¹ s⁻¹	B5
239 pM	6.38e-05 s⁻¹	266000 M⁻¹ s⁻¹	B6
≤ 3.61 pM	≤ 1e-06 s⁻¹	277000 M⁻¹ s⁻¹	B7
15 pM	3.54e-06 s⁻¹	236000 M⁻¹ s⁻¹	B8
≤ 4 pM	≤ 1e-06 s⁻¹	250000 M⁻¹ s⁻¹	B9
≤ 5.05 pM	≤ 1e-06 s⁻¹	198000 M⁻¹ s⁻¹	B10
990 pM	8.82e-05 s⁻¹	89100 M⁻¹ s⁻¹	B11
1510 pM	0.000137 s⁻¹	90500 M⁻¹ s⁻¹	B12
316 pM	4.19e-05 s⁻¹	133000 M⁻¹ s⁻¹	B13

Target: T1, human PVRIG protein on the cell …
Assay: flow cytometry on 293T-human PVRIG cells, AF647 goat anti-mouse IgG, percent positive cells
Method: The activity of murine antibodies from different clones in binding to human PVRIG protein on the cell membrane surface was evaluated by flow cytometry. The experimental procedure was as follows:
The 293T-human PVRIG cell line was harvested, washed with 1×PBS and resuspended, the cells were counted. Then […] were placed into each 1.5 ml Ep tube, the respective murine antibody (Antibody 1, Antibody 2, Antibody 3, or Antibody 4) was added at different concentrations, the mixture was incubated at 4° C. for 30 min, then washed with 1×PBS, and centrifuged at 3,500 rpm for 5 min to harvest the cells. The cell pellet was resuspended in 100 μl of 1×PBS, a AF647-labeled goat anti-mouse IgG antibody (available from Biolegend) was added, the mixture was incubated at 4° C. for 30 min in the dark, followed by washing twice with 1×PBS and harvesting the cells by centrifugation at 3,500 rpm for 5 min. The cell pellet was resuspended with 200 μl of 1×PBS and measured using a flow cytometer (BD LSR II).

EC50 (read off the curve)	Binder
~0.1 µg/mL	B11
~0.03 µg/mL	B12
~0.02 µg/mL	B13

Target: T2, recombinant human PVRIG-human IgG1 Fc …
Assay: ELISA, plate coated with human PVRIG-human IgG1 Fc at 1.0 µg/ml, HRP goat anti-mouse IgG, OD450
Method: The activity of the murine antibodies from different clones in binding to the human PVRIG-Fc fusion protein was evaluated by ELISA. The experimental procedure was as follows:
The recombinant human PVRIG-human IgG1 Fc fusion protein was diluted to 1.0 μg/ml in 1×PBS (phosphate buffer), the dilution was plated onto a 96-well ELISA plate overnight at 4° C. by 100 μl/well, the plate was washed 3 times with PBST (0.05% Tween20-PBS) and blocked with 1% BSA, followed by incubation at 37° C. for 2 h. The plate was washed 3 times with PBST, and murine antibodies (Antibody 1, Antibody 2, Antibody 3, or Antibody 4) diluted in multiple ratios were respectively added to set 8 concentrations, and the mixture was incubated at 37° C. for 1 h using mouse IgG1 (available from Biolegend) as a negative control at 100 μl/well. The plate was washed 3 times with PBST, and 100 μl of horseradish peroxidase (HRP)-labeled goat anti-mouse IgG antibody (available from BOSTER, 1:10,000 dilution) was added to each well, and the mixture was incubated at 37° C. for 1 h. After washing, 100 μl of TMB substrate solution was added to each well for developing for 10 to 15 min in the dark, 100 μl of stop solution (2M H2SO4) was added to each well, the solution was measured with a microplate reader immediately after the reaction stopped, and the absorbance at 450 nm (OD450) was read.
Target sequence in this assay (chain, as listed by the source limits assumed): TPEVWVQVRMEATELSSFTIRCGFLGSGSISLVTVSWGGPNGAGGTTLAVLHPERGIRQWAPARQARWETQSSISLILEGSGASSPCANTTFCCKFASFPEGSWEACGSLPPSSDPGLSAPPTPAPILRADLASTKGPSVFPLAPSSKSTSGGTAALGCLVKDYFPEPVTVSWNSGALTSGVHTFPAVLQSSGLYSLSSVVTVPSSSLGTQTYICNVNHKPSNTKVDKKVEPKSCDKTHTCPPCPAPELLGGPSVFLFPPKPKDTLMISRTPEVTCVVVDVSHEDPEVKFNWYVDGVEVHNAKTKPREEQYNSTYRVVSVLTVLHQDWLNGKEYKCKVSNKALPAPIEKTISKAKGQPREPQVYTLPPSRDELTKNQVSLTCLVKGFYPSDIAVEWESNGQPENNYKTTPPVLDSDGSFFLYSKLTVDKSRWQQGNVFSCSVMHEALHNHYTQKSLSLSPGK

EC50 (read off the curve)	Binder
~0.02 µg/mL	B11
~0.03 µg/mL	B12
~0.02 µg/mL	B13

Target: T1, human PVRIG protein on the cell …
Assay: flow cytometry on 293T-human PVRIG cells, AF647 mouse anti-human IgG-Fc, percent positive cells
Method: The activity of the humanized antibodies in binding to human PVRIG was evaluated by flow cytometry in the experiment.
The 293T-human PVRIG cell line was harvested, and washed and resuspended with 1×PBS to count the cells. Then 2×10^5 cells were placed into each 1.5 ml Ep tube, the respective humanized antibody was added at different concentrations, the mixture was incubated at 4° C. for 30 min, then washed with 1×PBS, and centrifuged at 3,500 rpm for 5 min to harvest the cells. The cell pellet was resuspended in 100 μl of 1×PBS, a AF647-labeled mouse anti-human IgG-Fc antibody (available from Biolegend) was added, the mixture was incubated at 4° C. for 30 min in the dark, followed by washing twice with 1×PBS and harvesting the cells by centrifugation at 3,500 rpm for 5 min. The cell pellet was resuspended with 200 μl of 1×PBS and measured using a flow cytometer (BD LSR II), and the analysis statistical results were shown in FIG. 16. It can be seen that all the humanized antibodies were ablet to specifically bind to the human PVRIG protein on the cell membrane surface.

EC50 (read off the curve)	Binder
~0.02 µg/mL	B1
~0.003 µg/mL	B2
~0.0005 µg/mL	B9
~0.001 µg/mL	B10

— US20230227572A1 (HEFEI TG IMMUNOPHARMA, published 2023)
